Consider 2 molecules from publication PMC12187842, “A novel molecule targeting neutrophil-mediated B-1a cell trogocytosis attenuates sepsis-induced acute lung injury” (Frontiers in Immunology, 2025).

Sequences and labels used below:
B1: recombinant mouse (rm)Siglec-G (receptor, UniProt Q80ZE3 18-543, looked up)
chain: QMESYFLQVQRIVKAQEGLCIFVPCSFSSPEGKWLNRSPLYGYWFKGIRKPSLSFPVATNNKDKVLEWEARGRFQLLGDISKKNCSLLIKDVQWGDSTNYFFRMERGFERFSFKEEFRLQVEALTQKPDIFIPEVLEPGEPVTVVCLFSWTFNQCPAPSFSWMGDAVSFQESRPHTSNYSVLSFIPGLQHHDTELTCQLDFSRMSTQRTVRLRVAYAPRSLAISIFHDNVSVPDLHENPSHLEVQQGQSLRLLCTADSQPPATLSWVLEDQVLSWSSPVGSRTLALELPWVKAGDSGHYTCQAENRLGSQQHTLDLSVLYPPQDLRVTVSQANRTVLEILRNAISLPVLEGQSLCLVCVTYSNPPANVSWAWVTQTLIPIQSSEPGVLELPLVQREHEGEFTCAAQNPLGAQRISLSLSVHYPPQMSSPSCSWEAKGLHCNCSSRAWPAPSLRWRLGEGLLEGNSSNASFTVTFSSLGPWVNSSLSLLQELGPSLWLSCESWNTHGAQTTSVLLLPDKDSATAFSK
notes: Siglec-G, mouse, recombinant; UniProt Q80ZE3 is printed for the in silico model; check the vendor's data sheet; source: bought: R&D Systems (Cat. No. 10103-SL-050)
B2: recombinant mouse CD47 (receptor, UniProt Q61735 19-140, looked up)
chain: QLLFSNVNSIEFTSCNETVVIPCIVRNVEAQSTEEMFVKWKLNKSYIFIYDGNKNSTTTDQNFTSAKISVSDLINGIASLKMDKRDAMVGNYTCEVTELSREGKTVIELKNRTVSWFSPNEK
notes: CD47, mouse, recombinant; UniProt Q61735 is printed for the in silico model; check the vendor's data sheet; also called rmCD47; source: bought: Abcam (Cat. No. AB231160)

For assay [1], the target named is rmCD47. As to the kind of experiment: Surface plasmon resonance: rmSiglec-G binding to immobilized rmCD47. Set-up: species or system mouse. Particulars: SPR (OpenSPR), rmCD47 immobilized on HS-carboxyl sensor, rmSiglec-G analyte 100, 250 and 500 nM, PBS 0.05% P20, pH 7.4, 20°C, 1:1 global fit; no C11; read-out: dissociation constant (KD) Siglec-G/CD47. On the procedure: To examine the direct interaction between recombinant mouse (rm)Siglec-G (Cat. No. 10103-SL-050, R&D Systems, Minneapolis, MN) and rmCD47 (Cat. No. AB231160, Abcam, Cambridge, UK), surface plasmon resonance (SPR), using OpenSPR (Nicoya, Ontario, Canada), was performed. HS-Carboxyl sensor was used; rmCD47 was immobilized on the sensor surface; rmSiglec-G was in the reaction buffer, working as an analyte. Binding reactions were performed in PBS 0.05% P20, pH7.4. The carboxyl sensor was first cleaned by injecting 150 µL of 10 mM HCl, followed by injection of 150 µL of the mixture of 1 aliquot of N-ethyl-N′-[3-[…]]-carbodiimide (EDC) and 1 aliquot of N-hydroxysuccinimide (NHS) to activate the sensor surface. […] To evaluate the binding, the analyte ranging from 100 nM, 250 nM and 500 nM were injected into flow cell-1 and flow cell-2, and the real-time interaction data were analyzed by TraceDrawer (Nicoya). […] For peptide C11 efficacy on Siglec-G binding to CD47, with the same setting as Siglec-G binding with CD47 on HS-carboxyl sensor, peptide C11 at 1 µM preincubated with concentrations of rmSiglec-G 100 nM, 250 nM & 500 nM for 30 minutes and then injected into flow cell-1 and flow cell-2, and real-time interaction were analyzed ab TraceDrawer (Nicoya). […]
Background: SPR reads the build-up and loss of mass on a sensor chip optically.

Assay [2] concerns the target B2. As to the kind of experiment: SPR; same setting as a1 (rmCD47 immobilised on HS-carboxyl sensor); peptide C11 at 1 µM preincubated for 30 minutes with rmSiglec-G at 100, 250 and 500 nM, then injected. Particulars: both partners purified.
Assay [3] has as its target B1. As to the kind of experiment: SPR; OpenSPR (Nicoya), HS-Carboxyl sensor; rmCD47 immobilised by EDC/NHS coupling; rmSiglec-G as analyte at 100, 250 and 500 nM; PBS 0.05% P20, pH 7.4; 40 uL/min; 20°C; global fit for 1:1 binding. The note with it: both partners purified.

B1: in assay [1], the Kd is 10.8 nM. For the same molecule, in assay [2], the “KD in the presence of 1 µM C11” value came to 155 nM.

As to B2, the Kd in assay [3] came out at 10.8 nM.
